[ ]: non-standard residue; d: D form. d(hArg) = N=C(N)NCCCC[C@@H](N)C(=O)O; dPhg = N[C@@H](C(=O)O)c1ccccc1

One experiment addresses T1, Abeta monomers (Homo sapiens, UniProt P05067).
T1 construct: incubate with FITC Abeta monomers, oligomers, fibrils and FITC for 1 hour at room temperature
The experiment is described as follows: Peptide microarray, binding of FITC Abeta monomers to immobilized peptides. The following applies: for Binding signal to Abeta monomers: peptide microarray, FITC Abeta, 1 hour at room temperature, control subtracted, averaged; for Binding specificity monomer to fibrils: quotient binding signal to monomers / binding signal to fibrils; for Binding specificity monomer to oligomer: quotient binding signal to monomers / binding signal to oligomers. The method, then:
(§1) The procedure for identifying peptides that bind specifically to amyloid beta monomer or specifically to amyloid beta oligomers and for determining the binding specificity of peptides within the meaning of the present invention can thus be as follows. Peptide microarrays comprising various peptides immobilized on a surface, such as derivatives of D3, are each incubated with different species of Abeta (such as monomers, oligomers and fibrils) labeled with a fluorescent dye. A peptide microarray is incubated with only the fluorescent dye to serve as the control. So as to ensure the reproducibility of the results, the incubation of the peptide microarrays can be carried out at least three times for each species. The binding of the fluorescence-labeled Abeta to the immobilized peptides is detected by way of the fluorescent dye. The more Abeta binds to the peptide, the higher the fluorescence signal is. The measured fluorescence signals of the reproductions are standardized, and the […]. This avoids binding of the fluorescence-labeled Abeta via the dye. The binding signals of an Abeta species to a peptide are then averaged. So as to determine the binding specificity, the quotient of the species to which the peptide is to specifically bind and another species is found.
(§2) Pretreatment of the peptide microarray slides: • briefly dip 3× in ethanol (96%) and then wash with H2O (30 minutes) • briefly dry by way of centrifuging
(§3) Preparation of monomers and oligomers: • size exclusion chromatography according to Johansson et al. 2006 (Johansson, A.-S. et al. Physiochemical characterization of the Alzheimer's disease-related peptides Aβ1-42Arctic and Aβ1-42 wt. FEBS Journal 273, 2618-2630 (2006)). • oligomers were fractionated at 8-9 ml, monomers at 16-17 ml.
(§4) Carrying out the peptide microarray: • incubate with FITC Abeta monomers, oligomers, fibrils and FITC for 1 hour at room temperature • wash: TBS-T briefly 3× (only TBS-T buffer is replaced), 3×10 minutes in a flacon, 3×H2O, 3×10 minutes • dry by way of centrifugation • The binding of the fluorescence-labeled Abeta to the immobilized peptides is detected by way of the fluorescent dye using the microarray reader FLA800 from Fuji Film. The more Abeta binds to the peptide, the higher is the fluorescence signal. • carrier set mode: slides • resolution: 10 μm • scan mode: high sensitivity (slow): scan pixel at 200 mm/s • laser: 473 nm • filter: 530 DF 20 • photomultiplier tube (PMT) HV (%): 100 • images were stored as .tif files
(§5) The software, AIDA Metrix, from Raytest was used to evaluate the fluorescence signals:
(§6) To ensure the reproducibility of the results, the incubation of the peptide microarrays is carried out at least three times for each species.
(§7) The measured fluorescence signals of the reproductions are standardized using a median-based standardization, and the control was subtracted from the signal. This avoided the binding of the fluorescence-labeled Abeta via the dye.
(§8) The binding signals of an Abeta species to a peptide were averaged.
So as to determine the binding specificity, the quotient of the species to which the peptide is to specifically bind and another species is created.
Example: binding specificity of peptide X to Abeta monomers=binding signal of peptides X to monomers/binding signal of peptides X to oligomers.

Experiment [1] concerns the target T2, Abeta oligomers (Homo sapiens, UniProt P05067). The experiment is described as follows: Peptide microarray, binding of FITC Abeta oligomers to immobilized peptides. The conditions noted are these: 1 hour at room temperature, control subtracted, averaged. The method, then: as §1, §2, §3, §4, §5, §6, §7, §8
For experiment [2], the target named is T3, Abeta fibrils (Homo sapiens, UniProt P05067).
T3 construct: Pre-incubated Abeta was co-incubated with the peptides
The experiment is described as follows: Peptide microarray, binding of FITC Abeta fibrils to immobilized peptides. The following applies: 1 hour at room temperature, control subtracted, averaged. The method, then: as §1, §2
Preparation of fibrils: • incubate Abeta over 3 days, centrifuge, discard supernatant and resuspend in buffer (repeat 3 times)
as §4, §5, §6, §7, §8

Experiment [3] deals with T2, Abeta oligomers. The experiment is described as follows: QIAD method, elimination of Abeta oligomers (density gradient centrifugation, RP-HPLC). The class given is biochemical. The conditions noted are these: ratio of Abeta to peptide of 8:1, fractions 4-6, FIG. 2. Here is the method:
Using the QIAD method for the quantitative characterization of amyloid peptides and/or proteins in a sample, it was possible to quantify the properties of the substances. Pre-incubated Abeta was co-incubated with the peptides. The different Abeta species were separated by way of density gradient centrifugation and quantified in the individual fractions by way of RP-HPLC Abeta. The elimination of the Abeta oligomers in fractions 4-6 was analyzed.

In experiment [4] the target is T3, Abeta fibrils. The experiment is described as follows: ThT assay, formation of ThT positive Abeta fibrils. The class given is biochemical. The following applies: 48 hours, co-incubation with Abeta, FIG. 3.

T1 sequence (P05067 672-713 limits assumed): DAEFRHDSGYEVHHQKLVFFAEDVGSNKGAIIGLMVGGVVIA
T2 sequence (P05067 672-713 limits assumed): as above
T3 sequence (P05067 672-713 limits assumed): as above

Take “rkrirl06yhikr (H-[dR][dK][dR][dI][dR][dL][dPhg][dY][dH][dI][dK][dR]-NH2; SMILES CC[C@@H](C)[C@@H](NC(=O)[C@@H](Cc1c[nH]cn1)NC(=O)[C@@H](Cc1ccc(O)cc1)NC(=O)[C@H](NC(=O)[C@@H](CC(C)C)NC(=O)[C@@H](CCCNC(=N)N)NC(=O)[C@H](NC(=O)[C@@H](CCCNC(=N)N)NC(=O)[C@@H](CCCCN)NC(=O)[C@H](N)CCCNC(=N)N)[C@H](C)CC)c1ccccc1)C(=O)N[C@H](CCCCN)C(=O)N[C@H](CCCNC(=N)N)C(N)=O) [ANK17, D3 derivative; 06: Phenylglycine (D)]”: in the experiment with Abeta monomers, the “Binding signal to Abeta monomers” value is 4.7 rfu, the “Binding specificity monomer to fibrils” value amounted to 2.5 and the “Binding specificity monomer to oligomer” value was found to be 4.8. Further, the “Binding signal to Abeta oligomers” value in the experiment with Abeta oligomers [1] is recorded as 1.0 rfu. In addition, the “Binding signal to Abeta fibrils” value with Abeta fibrils [2] came to 1.9 rfu.
Consider “rkrirl06yhwnr (H-[dR][dK][dR][dI][dR][dL][dPhg][dY][dH][dW][dN][dR]-NH2; SMILES CC[C@@H](C)[C@@H](NC(=O)[C@@H](CCCNC(=N)N)NC(=O)[C@@H](CCCCN)NC(=O)[C@H](N)CCCNC(=N)N)C(=O)N[C@H](CCCNC(=N)N)C(=O)N[C@H](CC(C)C)C(=O)N[C@@H](C(=O)N[C@H](Cc1ccc(O)cc1)C(=O)N[C@H](Cc1c[nH]cn1)C(=O)N[C@H](Cc1c[nH]c2ccccc12)C(=O)N[C@H](CC(N)=O)C(=O)N[C@H](CCCNC(=N)N)C(N)=O)c1ccccc1) [ANK3, D3 derivative; 06: Phenylglycine (D)]”, for which, in the experiment with Abeta monomers, the “Binding signal to Abeta monomers” value amounted to 3.6 rfu, the “Binding specificity monomer to fibrils” value was 21.9 and the “Binding specificity monomer to oligomer” value was determined as 6.5. Further, the “Binding signal to Abeta oligomers” value with Abeta oligomers [1] came out at 0.6 rfu. In addition, in the experiment with Abeta fibrils [2], the “Binding signal to Abeta fibrils” value is 0.2 rfu. In the experiment with Abeta oligomers [3], the “Elimination of Abeta oligomers” value turned out to be 62±10%. The “ThT fluorescence during the entire measuring time period” value with Abeta fibrils [4] was “remains at the level of the first measured value”.
Turning to “rkrirl06yhinr (H-[dR][dK][dR][dI][dR][dL][dPhg][dY][dH][dI][dN][dR]-NH2; SMILES CC[C@@H](C)[C@@H](NC(=O)[C@@H](Cc1c[nH]cn1)NC(=O)[C@@H](Cc1ccc(O)cc1)NC(=O)[C@H](NC(=O)[C@@H](CC(C)C)NC(=O)[C@@H](CCCNC(=N)N)NC(=O)[C@H](NC(=O)[C@@H](CCCNC(=N)N)NC(=O)[C@@H](CCCCN)NC(=O)[C@H](N)CCCNC(=N)N)[C@H](C)CC)c1ccccc1)C(=O)N[C@H](CC(N)=O)C(=O)N[C@H](CCCNC(=N)N)C(N)=O) [ANK2, D3 derivative; 06: Phenylglycine (D)]”, in the experiment with Abeta monomers, the “Binding signal to Abeta monomers” value came out at 5.6 rfu, the “Binding specificity monomer to fibrils” value was determined as 7.1 and the “Binding specificity monomer to oligomer” value stood at 3.4. In addition, the “Binding signal to Abeta oligomers” value in the experiment with Abeta oligomers [1] is listed as 1.6 rfu. The “Binding signal to Abeta fibrils” value with Abeta fibrils [2] was found to be 0.8 rfu. For the same substance, the “Elimination of Abeta oligomers” value in the experiment with Abeta oligomers [3] worked out at 54±7%. The “ThT fluorescence during the entire measuring time period” value with Abeta fibrils [4] is “remains at the level of the first measured value”.
“rpr07rlhtkkkr (H-[dR][dP][dR][d(hArg)][dR][dL][dH][dT][dK][dK][dK][dR]-NH2; SMILES CC(C)C[C@@H](NC(=O)[C@@H](CCCNC(=N)N)NC(=O)[C@@H](CCCCNC(=N)N)NC(=O)[C@@H](CCCNC(=N)N)NC(=O)[C@H]1CCCN1C(=O)[C@H](N)CCCNC(=N)N)C(=O)N[C@H](Cc1c[nH]cn1)C(=O)N[C@@H](C(=O)N[C@H](CCCCN)C(=O)N[C@H](CCCCN)C(=O)N[C@H](CCCCN)C(=O)N[C@H](CCCNC(=N)N)C(N)=O)[C@H](C)O) [ANK18, D3 derivative; 07: D-Homoarginine]”: in the experiment with Abeta monomers, the “Binding signal to Abeta monomers” value came to 1.2 rfu, the “Binding specificity monomer to fibrils” value was 9.4 and the “Binding specificity monomer to oligomer” value amounted to 7.0. In the experiment with Abeta oligomers [1], the “Binding signal to Abeta oligomers” value was found to be 0.2 rfu. In addition, the “Binding signal to Abeta fibrils” value with Abeta fibrils [2] came to 0.1 rfu.
With “rkrirlvyhinr (H-[dR][dK][dR][dI][dR][dL][dV][dY][dH][dI][dN][dR]-NH2; SMILES CC[C@@H](C)[C@@H](NC(=O)[C@@H](Cc1c[nH]cn1)NC(=O)[C@@H](Cc1ccc(O)cc1)NC(=O)[C@H](NC(=O)[C@@H](CC(C)C)NC(=O)[C@@H](CCCNC(=N)N)NC(=O)[C@H](NC(=O)[C@@H](CCCNC(=N)N)NC(=O)[C@@H](CCCCN)NC(=O)[C@H](N)CCCNC(=N)N)[C@H](C)CC)C(C)C)C(=O)N[C@H](CC(N)=O)C(=O)N[C@H](CCCNC(=N)N)C(N)=O) [ANK1, D-enantiomeric 12-mer peptide derived from D3]”, in the experiment with Abeta monomers, the “Binding signal to Abeta monomers” value turned out to be 6.6 rfu, the “Binding specificity monomer to fibrils” value was 5.1 and the “Binding specificity monomer to oligomer” value came out at 3.5. In addition, the “Binding signal to Abeta oligomers” value in the experiment with Abeta oligomers [1] is given as 1.9 rfu. For the same substance, the “Binding signal to Abeta fibrils” value with Abeta fibrils [2] worked out at 1.3 rfu. The “Elimination of Abeta oligomers” value with Abeta oligomers [3] is 51±6%. In addition, the “ThT fluorescence during the entire measuring time period” value with Abeta fibrils [4] is recorded as “remains at the level of the first measured value”.
As for “rkr07rlvtkrnr (H-[dR][dK][dR][d(hArg)][dR][dL][dV][dT][dK][dR][dN][dR]-NH2; SMILES CC(C)C[C@@H](NC(=O)[C@@H](CCCNC(=N)N)NC(=O)[C@@H](CCCCNC(=N)N)NC(=O)[C@@H](CCCNC(=N)N)NC(=O)[C@@H](CCCCN)NC(=O)[C@H](N)CCCNC(=N)N)C(=O)N[C@@H](C(=O)N[C@@H](C(=O)N[C@H](CCCCN)C(=O)N[C@H](CCCNC(=N)N)C(=O)N[C@H](CC(N)=O)C(=O)N[C@H](CCCNC(=N)N)C(N)=O)[C@H](C)O)C(C)C) [ANK16, D3 derivative; 07: D-Homoarginine]”, in the experiment with Abeta monomers, the “Binding signal to Abeta monomers” value came to 11.9 rfu, the “Binding specificity monomer to fibrils” value is on record as 8.1 and the “Binding specificity monomer to oligomer” value was found to be 8.6. Moreover, the “Binding signal to Abeta oligomers” value with Abeta oligomers [1] was 1.4 rfu. In addition, the “Binding signal to Abeta fibrils” value with Abeta fibrils [2] amounted to 1.5 rfu.
Regarding “rprvrl06yhwnr (H-[dR][dP][dR][dV][dR][dL][dPhg][dY][dH][dW][dN][dR]-NH2; SMILES CC(C)C[C@@H](NC(=O)[C@@H](CCCNC(=N)N)NC(=O)[C@H](NC(=O)[C@@H](CCCNC(=N)N)NC(=O)[C@H]1CCCN1C(=O)[C@H](N)CCCNC(=N)N)C(C)C)C(=O)N[C@@H](C(=O)N[C@H](Cc1ccc(O)cc1)C(=O)N[C@H](Cc1c[nH]cn1)C(=O)N[C@H](Cc1c[nH]c2ccccc12)C(=O)N[C@H](CC(N)=O)C(=O)N[C@H](CCCNC(=N)N)C(N)=O)c1ccccc1) [ANK15, D3 derivative; 06: Phenylglycine (D)]”, in the experiment with Abeta monomers, the “Binding signal to Abeta monomers” value turned out to be 1.3 rfu, the “Binding specificity monomer to fibrils” value is listed as 12.2 and the “Binding specificity monomer to oligomer” value is on record as 2.2. Besides, the “Binding signal to Abeta oligomers” value with Abeta oligomers [1] is 0.6 rfu. The “Binding signal to Abeta fibrils” value with Abeta fibrils [2] is recorded as 0.1 rfu.

For the origin of these results see patent publication US10174097B2, “Specific A-beta species-binding peptides for the therapy and/or diagnosis of Alzheimer's dementia” (Forschungszentrum Juelich GmbH, priority 2015, dated 2019).
